Assay results: patent US20170305994A1 (Novo Nordisk, published 2017)

Legend:
[1] = target: T1, human DR3 (full length, on cells) (human, UniProt Q93038 25-417); test: cell-based or functional assay
T1 sequence: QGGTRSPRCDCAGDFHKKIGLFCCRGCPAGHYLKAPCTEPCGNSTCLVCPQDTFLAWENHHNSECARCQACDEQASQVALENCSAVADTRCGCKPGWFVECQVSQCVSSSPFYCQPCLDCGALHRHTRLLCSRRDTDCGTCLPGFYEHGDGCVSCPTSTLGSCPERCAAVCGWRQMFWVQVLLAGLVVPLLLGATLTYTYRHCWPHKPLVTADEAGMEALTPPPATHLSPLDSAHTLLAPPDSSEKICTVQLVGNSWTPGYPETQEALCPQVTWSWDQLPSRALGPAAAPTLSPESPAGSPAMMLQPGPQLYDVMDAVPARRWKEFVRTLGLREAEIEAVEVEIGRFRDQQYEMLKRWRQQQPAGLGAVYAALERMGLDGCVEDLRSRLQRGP

[2] = target: T2, cynomolgus DR3 (on HEK293 reporter cells) (cynomolgus, UniProt A0A2K5WJ09 98-464); test: cell-based or functional assay
T2 sequence: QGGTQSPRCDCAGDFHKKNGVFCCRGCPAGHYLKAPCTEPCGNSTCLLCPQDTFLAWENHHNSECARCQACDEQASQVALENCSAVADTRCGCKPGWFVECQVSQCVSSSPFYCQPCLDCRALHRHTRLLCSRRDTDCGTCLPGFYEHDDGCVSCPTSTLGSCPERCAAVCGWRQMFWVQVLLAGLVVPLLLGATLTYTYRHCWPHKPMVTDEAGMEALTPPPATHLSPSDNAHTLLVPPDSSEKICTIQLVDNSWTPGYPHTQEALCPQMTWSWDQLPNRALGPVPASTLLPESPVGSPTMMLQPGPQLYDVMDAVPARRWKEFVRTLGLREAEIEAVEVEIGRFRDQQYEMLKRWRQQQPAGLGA

[3] = target: T1, human DR3 (full length, on cells); test: cell-based or functional assay; remark: listed apart in the source
human DR3 R29Q = target: T3, human DR3 R29Q (human, UniProt Q93038 25-417); test: cell-based or functional assay
T3 sequence: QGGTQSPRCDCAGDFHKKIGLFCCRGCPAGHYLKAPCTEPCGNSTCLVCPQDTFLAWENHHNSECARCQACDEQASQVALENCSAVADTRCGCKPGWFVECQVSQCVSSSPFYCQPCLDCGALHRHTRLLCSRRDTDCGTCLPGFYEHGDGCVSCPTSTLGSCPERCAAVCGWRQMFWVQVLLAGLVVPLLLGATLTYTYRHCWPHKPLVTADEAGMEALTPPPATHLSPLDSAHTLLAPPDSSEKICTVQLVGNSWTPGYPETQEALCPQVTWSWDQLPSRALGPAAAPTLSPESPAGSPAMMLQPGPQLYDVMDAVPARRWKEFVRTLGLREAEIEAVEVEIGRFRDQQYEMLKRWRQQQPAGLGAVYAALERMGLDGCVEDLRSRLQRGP

[4] = target: T4, human DR3 with the death domain deleted (ΔM339-P417 of SEQ ID NO:1), expressed on CHOK1SV cells (human, UniProt Q93038 25-338); test: FACS on DR3 expressing cells; competitor Mab 0107
T4 construct: also called truncated DR3; hDR3 expressing CHO cells
T4 sequence: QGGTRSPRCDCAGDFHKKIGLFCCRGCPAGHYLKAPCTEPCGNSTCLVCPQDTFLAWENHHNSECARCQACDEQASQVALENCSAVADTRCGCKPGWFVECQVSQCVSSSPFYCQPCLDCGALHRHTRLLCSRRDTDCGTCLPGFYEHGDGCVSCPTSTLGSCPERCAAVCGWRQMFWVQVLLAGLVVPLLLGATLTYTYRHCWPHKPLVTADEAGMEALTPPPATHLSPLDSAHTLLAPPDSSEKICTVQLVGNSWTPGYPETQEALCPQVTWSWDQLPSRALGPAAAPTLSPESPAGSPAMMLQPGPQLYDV

[5] = target: T4, human DR3 with the death domain deleted …; test: flow cytometry competition: Fab vs TL1A on hDR3-expressing CHO cells
DR3 (CRD1)-Fc = target: T5, DR3 (CRD1)-Fc (human); test: SPR Biacore T200, DR3(CRD1)-Fc captured by anti-human IgG, Fab as analyte, 25 C, 1:1 model, mean of 3 surface densities
T5 construct: Amino acids 25-71 of DR3 fused to the Fc domain of human IgG4; purified to exclude oligomers (mainly dimeric)
Protocol: The experiments were performed on a Biacore T200 instrument (GE Healthcare) and analysed with the Biacore T200 Evaluation Software. Anti human IgG antibodies (human IgG capture kit from GE Healthcare) were immobilized on all flow cells of a CM5 sensor chip according to manufacturer's instructions. HBS-EP (GE Healthcare) with 0.1% human serum albumin was used as running buffer. DR3(CRD1)-Fc (SEQ ID NO:2) was captured on the chip at low surface densities between 14 and 45 RU. Fab fragments were diluted to concentrations between 90 and 0.037 nM and subsequently injected for 360 s. […] Binding curves were measured at 25° C. with a flow rate between 30 and 60 μL/min.
Regeneration was performed with 3 M […] for 2×20 s. The raw data were double referenced by subtraction of the signals from a reference flow cell without captured ligand and a buffer blank. Determination of the kinetic parameters was performed by fitting with a 1:1 binding model using the Biacore T200 Evaluation Software (GE Healthcare). Average values obtained from 3 different surface densities of DR3(CRD1)-Fc (SEQ ID NO:2) were calculated and are stated in table 14

T5 sequence (chain, as listed by the source limits assumed): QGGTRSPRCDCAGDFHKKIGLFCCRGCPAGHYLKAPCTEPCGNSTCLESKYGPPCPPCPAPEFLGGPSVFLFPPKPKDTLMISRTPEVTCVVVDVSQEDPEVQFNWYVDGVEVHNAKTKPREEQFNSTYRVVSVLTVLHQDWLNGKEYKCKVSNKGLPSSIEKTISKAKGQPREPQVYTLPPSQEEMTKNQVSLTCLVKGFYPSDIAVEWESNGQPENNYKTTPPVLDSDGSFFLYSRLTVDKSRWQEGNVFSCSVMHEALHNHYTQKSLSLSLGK

B1: 0228 (humanized Fab of 27F44, IgG4, hz0072VH S49A / hz0072VL) (Fab, V domains shown)
VH: EVQLVESGGGLVQPGGSLRLSCAASGFTFSNYDMSWVRQATGKGLEWVAAFSSDGYTFYPGSVKGRFTISRENAKNSLYLQMNSLRAGDTAVYYCARHADYANYPVMDYWGQGTLVTVSS
VL: DIQMTQSPSSLSASVGDRVTITCRASKSVSTSGYSYMHWYQQKPGKAPKLLIYLASNLESGVPSRFSGSGSGTDFTLTISSLQPEDFATYYCQHSRELPLTFGGGTKVEIKR
notes: IgG4-Cys, hz (humanized IgG4 Fab with the hinge cysteine kept)
- IC50 at 40 ng/ml TL1A, I5 reporter cells [1]: 0.32 nM
- IC50 at 40 ng/ml TL1A, Lyda20 reporter cells [2]: 628 nM
- IC50, TNFalpha inhibition, TL1A-activated CD4+ T cells, donor 1 [3]: 0.3 nM
- IC50, TNFalpha inhibition, TL1A-activated CD4+ T cells, donor 2 [3]: 0.17 nM
- IC50, TNFalpha inhibition, average (n 3) [3]: 0.189 nM
- max % inhibition of TNFalpha, donor 1 [3]: 92.2%
- max % inhibition of TNFalpha, donor 2 [3]: 82.3%
- IC50 of Fab upon stimulation by TL1A, transient reporter (human DR3 R29Q): 0.372 nM
- molar ratio Mab/Fab from which the Fab inhibits [4]: 1 Fab per Mab (molar ratio Mab/Fab 1:n)
- IC50 [5]: 0.484 nM
- max percentage inhibition [5]: 78%
- Kd (DR3 (CRD1)-Fc): 0.00805 nM
- koff (DR3 (CRD1)-Fc): 3.19e-05 s⁻¹
- kon (DR3 (CRD1)-Fc): 3.97e+06 M⁻¹ s⁻¹
